# Laboratory results reported in patent US20260167699A1 (Chugai, published 2026).
# Residue numbers refer to the chain shown, from its start.
# B1: Kn125-L4-GS7 (antibody, human IgG1, kappa)
# heavy 1: QDQLVQSGAEVKKPGASVKVSCKASGFNIKDTYIQWVRQAPGQGLEWMGRIDPLRKQTKYREKFEGRVTITADTSTNTAYMELSSLRSEDTAVYYCVRSGREFDYWGQGTLVTVSSASTKGPSVFPLAPSSKSTSGGTAALGCLVKDYFPEPVTVSWNSGALTSGVHTFPAVLQSSGLYSLSSVVTVPSSSLGTQTYICNVNHKPSNTKVDKKVEPKSCDKTHTCPPCPAPELLGGPSVFLFPPKPKDTLMISRTPEVTCVVVDVSHEEPEVKFNWYVDGVEVHNAKTKPREEQYNSTYRVVSVLTVLHQDWLNGKEYKCKVSNDALPMPIEETISKAKGQPREPQVYTLPPSRCELTKNQVSLSCAVKGFYPSDIAVEWESNGQPENNYKTTPPVLDSDGSFFLVSKLTVDKSRWQQGNVFSCSVMHEALHNHYTQKSLSLSP
# heavy 2: QDQLVQSGAEVKKPGASVKVSCKASGFNIKDTYIQWVRQAPGQGLEWMGRIDPLRKQTKYREKFEGRVTITADTSTNTAYMELSSLRSEDTAVYYCVRSGREFDYWGQGTLVTVSSASTKGPSVFPLAPSSKSTSGGTAALGCLVKDYFPEPVTVSWNSGALTSGVHTFPAVLQSSGLYSLSSVVTVPSSSLGTQTYICNVNHKPSNTKVDKKVEPKSCDKTHTCPPCPAPEYQWGPMVFLFPPKPKDTLMISRTPEVTCVVVDVSDEEPEVKFNWYVDGVEVHNAKTKPREEQYNATYRVVSVLTVLHQDWLNGKEYKCKVSNGGSGGGSPIEKTISKAKGQPREPQVCTLPPSRDELTKNQVSLWCLVKGFYPSDIAVEWESNGQPENNYKTTPPVLDSDGSFFLYSKLTVDKSRWQQGNVFSCSVMHEALHNHYTQKSLSLSP
# light: DIQMTQSPSSLSASVGDRVTITCRASQDIHKYIAWYQQKPGQAPRLLIQYTSTLQPGVPSRFSGSGSGTDYTFTISSLQPEDIATYYCLQYEQLRTFGGGTKVEIKRTVAAPSVFIFPPSDEQLKSGTASVVCLLNNFYPREAKVQWKVDNALQSGNSQESVTEQDSKDSTYSLSSTLTLSKADYEKHKVYACEVTHQGLSSPVTKSFNRGEC
# notes: heterodimerized anti-EREG antibody: altered H240-Kn125 chain (Gly/Ser peptide in loop) with H240-Hl076 and L73-k0
# B2: Kn125-L4-GS11 (antibody, human IgG1, kappa)
# heavy 1: B1 heavy 1
# heavy 2: QDQLVQSGAEVKKPGASVKVSCKASGFNIKDTYIQWVRQAPGQGLEWMGRIDPLRKQTKYREKFEGRVTITADTSTNTAYMELSSLRSEDTAVYYCVRSGREFDYWGQGTLVTVSSASTKGPSVFPLAPSSKSTSGGTAALGCLVKDYFPEPVTVSWNSGALTSGVHTFPAVLQSSGLYSLSSVVTVPSSSLGTQTYICNVNHKPSNTKVDKKVEPKSCDKTHTCPPCPAPEYQWGPMVFLFPPKPKDTLMISRTPEVTCVVVDVSDEEPEVKFNWYVDGVEVHNAKTKPREEQYNATYRVVSVLTVLHQDWLNGKEYKCKVSNGGSGGGSGGGSPIEKTISKAKGQPREPQVCTLPPSRDELTKNQVSLWCLVKGFYPSDIAVEWESNGQPENNYKTTPPVLDSDGSFFLYSKLTVDKSRWQQGNVFSCSVMHEALHNHYTQKSLSLSP
# light: B1 light
# notes: as for B1
# B3: Kn125-L2a-9 (antibody, human IgG1, kappa)
# heavy 1: B1 heavy 1
# heavy 2: QDQLVQSGAEVKKPGASVKVSCKASGFNIKDTYIQWVRQAPGQGLEWMGRIDPLRKQTKYREKFEGRVTITADTSTNTAYMELSSLRSEDTAVYYCVRSGREFDYWGQGTLVTVSSASTKGPSVFPLAPSSKSTSGGTAALGCLVKDYFPEPVTVSWNSGALTSGVHTFPAVLQSSGLYSLSSVVTVPSSSLGTQTYICNVNHKPSNTKVDKKVEPKSCDKTHTCPPCPAPEYQWGPMVFLFPPKPKDTLMISRTPEVTCVVVDVSDEGGSGGSGGSEPEVKFNWYVDGVEVHNAKTKPREEQYNATYRVVSVLTVLHQDWLNGKEYKCKVSNKALPAPIEKTISKAKGQPREPQVCTLPPSRDELTKNQVSLWCLVKGFYPSDIAVEWESNGQPENNYKTTPPVLDSDGSFFLYSKLTVDKSRWQQGNVFSCSVMHEALHNHYTQKSLSLSP
# light: B1 light
# notes: as for B1
# B4: Kn125-L2a-6 (antibody, human IgG1, kappa)
# heavy 1: B1 heavy 1
# heavy 2: QDQLVQSGAEVKKPGASVKVSCKASGFNIKDTYIQWVRQAPGQGLEWMGRIDPLRKQTKYREKFEGRVTITADTSTNTAYMELSSLRSEDTAVYYCVRSGREFDYWGQGTLVTVSSASTKGPSVFPLAPSSKSTSGGTAALGCLVKDYFPEPVTVSWNSGALTSGVHTFPAVLQSSGLYSLSSVVTVPSSSLGTQTYICNVNHKPSNTKVDKKVEPKSCDKTHTCPPCPAPEYQWGPMVFLFPPKPKDTLMISRTPEVTCVVVDVSDEGGSGGSEPEVKFNWYVDGVEVHNAKTKPREEQYNATYRVVSVLTVLHQDWLNGKEYKCKVSNKALPAPIEKTISKAKGQPREPQVCTLPPSRDELTKNQVSLWCLVKGFYPSDIAVEWESNGQPENNYKTTPPVLDSDGSFFLYSKLTVDKSRWQQGNVFSCSVMHEALHNHYTQKSLSLSP
# light: B1 light
# notes: as for B1
# B5: Kn125-L4-3 (antibody, human IgG1, kappa)
# heavy 1: B1 heavy 1
# heavy 2: QDQLVQSGAEVKKPGASVKVSCKASGFNIKDTYIQWVRQAPGQGLEWMGRIDPLRKQTKYREKFEGRVTITADTSTNTAYMELSSLRSEDTAVYYCVRSGREFDYWGQGTLVTVSSASTKGPSVFPLAPSSKSTSGGTAALGCLVKDYFPEPVTVSWNSGALTSGVHTFPAVLQSSGLYSLSSVVTVPSSSLGTQTYICNVNHKPSNTKVDKKVEPKSCDKTHTCPPCPAPEYQWGPMVFLFPPKPKDTLMISRTPEVTCVVVDVSDEEPEVKFNWYVDGVEVHNAKTKPREEQYNATYRVVSVLTVLHQDWLNGKEYKCKVSNKGGSALPAPIEKTISKAKGQPREPQVCTLPPSRDELTKNQVSLWCLVKGFYPSDIAVEWESNGQPENNYKTTPPVLDSDGSFFLYSKLTVDKSRWQQGNVFSCSVMHEALHNHYTQKSLSLSP
# light: B1 light
# notes: as for B1
# B6: Kn125-L2a-3 (antibody, human IgG1, kappa)
# heavy 1: B1 heavy 1
# heavy 2: QDQLVQSGAEVKKPGASVKVSCKASGFNIKDTYIQWVRQAPGQGLEWMGRIDPLRKQTKYREKFEGRVTITADTSTNTAYMELSSLRSEDTAVYYCVRSGREFDYWGQGTLVTVSSASTKGPSVFPLAPSSKSTSGGTAALGCLVKDYFPEPVTVSWNSGALTSGVHTFPAVLQSSGLYSLSSVVTVPSSSLGTQTYICNVNHKPSNTKVDKKVEPKSCDKTHTCPPCPAPEYQWGPMVFLFPPKPKDTLMISRTPEVTCVVVDVSDEGGSEPEVKFNWYVDGVEVHNAKTKPREEQYNATYRVVSVLTVLHQDWLNGKEYKCKVSNKALPAPIEKTISKAKGQPREPQVCTLPPSRDELTKNQVSLWCLVKGFYPSDIAVEWESNGQPENNYKTTPPVLDSDGSFFLYSKLTVDKSRWQQGNVFSCSVMHEALHNHYTQKSLSLSP
# light: B1 light
# notes: as for B1
# B7: Kn125-L2b-9 (antibody, human IgG1, kappa)
# heavy 1: B1 heavy 1
# heavy 2: B3 heavy 2 with G269E, S271G, G272S, S274G, G275S, S277G, E278S
# light: B1 light
# notes: as for B1
# B8: Kn125-L4-6 (antibody, human IgG1, kappa)
# heavy 1: B1 heavy 1
# heavy 2: B2 heavy 2 with G325K, S327G, G328S, G332A, G333L, G334P, S335A
# light: B1 light
# notes: as for B1
# B9: Kn125-L2b-3 (antibody, human IgG1, kappa)
# heavy 1: B1 heavy 1
# heavy 2: B6 heavy 2 with G269E, S271G, E272S
# light: B1 light
# notes: as for B1
# B10: Kn125-L2b-6 (antibody, human IgG1, kappa)
# heavy 1: B1 heavy 1
# heavy 2: B4 heavy 2 with G269E, S271G, G272S, S274G, E275S
# light: B1 light
# notes: as for B1
# Molecular target: T1, FcγRIIIaV (human, UniProt P08637 17-208)
# T1 construct: extracellular domain
# Test: SPR (Biacore), antibody captured, FcγR as analyte, 1:1 Langmuir fit
# T1 sequence (P08637 other isoform, or with tags, fused parts or gaps): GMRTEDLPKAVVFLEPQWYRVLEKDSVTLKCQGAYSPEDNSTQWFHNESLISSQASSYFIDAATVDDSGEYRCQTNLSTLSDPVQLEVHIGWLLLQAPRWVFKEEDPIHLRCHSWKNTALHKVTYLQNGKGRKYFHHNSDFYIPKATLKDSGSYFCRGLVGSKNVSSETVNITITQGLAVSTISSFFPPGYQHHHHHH
row,Kd [nM],Binder
1,2,B1
2,1.5,B2
3,11,B3
4,9.2,B4
5,6.9,B5
6,10,B6
7,7,B7
8,1.7,B8
9,7.8,B9
10,6.3,B10
